Patent US20180030116A1 (Amgen, published 2018)
Changes are numbered by the printed parent chain. Names and notes keep the numbering of the source. Where two headings read alike, the source gives them in different places.

Tests used:
Test in all cases: cell-based or functional assay
[1] = molecular target: T1, MMP9 (human, UniProt P14780 107-457, limits assumed)
[2] = molecular target: T2, MMP2 (human, UniProt P08253 30-660)
T2 sequence (looked up): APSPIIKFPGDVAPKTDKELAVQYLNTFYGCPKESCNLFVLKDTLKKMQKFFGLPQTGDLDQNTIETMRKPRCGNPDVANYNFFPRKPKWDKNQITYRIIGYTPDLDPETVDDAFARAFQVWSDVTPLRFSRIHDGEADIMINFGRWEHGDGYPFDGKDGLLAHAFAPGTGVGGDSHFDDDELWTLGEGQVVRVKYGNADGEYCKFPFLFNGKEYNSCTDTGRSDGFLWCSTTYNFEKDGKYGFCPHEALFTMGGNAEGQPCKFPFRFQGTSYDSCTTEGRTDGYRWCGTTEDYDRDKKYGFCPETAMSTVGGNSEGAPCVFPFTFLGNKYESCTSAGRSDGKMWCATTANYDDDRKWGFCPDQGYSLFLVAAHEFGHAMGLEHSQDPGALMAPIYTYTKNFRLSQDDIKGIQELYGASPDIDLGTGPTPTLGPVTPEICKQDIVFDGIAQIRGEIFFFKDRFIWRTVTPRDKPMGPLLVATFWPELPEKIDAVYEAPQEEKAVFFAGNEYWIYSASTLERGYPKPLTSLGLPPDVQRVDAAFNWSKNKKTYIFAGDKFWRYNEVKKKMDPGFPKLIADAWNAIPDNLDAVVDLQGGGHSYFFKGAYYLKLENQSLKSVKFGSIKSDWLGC

[3] = molecular target: MMP9 (human) (UniProt P14780)
Chain of MMP9 (human) (P14780 107-457 limits assumed): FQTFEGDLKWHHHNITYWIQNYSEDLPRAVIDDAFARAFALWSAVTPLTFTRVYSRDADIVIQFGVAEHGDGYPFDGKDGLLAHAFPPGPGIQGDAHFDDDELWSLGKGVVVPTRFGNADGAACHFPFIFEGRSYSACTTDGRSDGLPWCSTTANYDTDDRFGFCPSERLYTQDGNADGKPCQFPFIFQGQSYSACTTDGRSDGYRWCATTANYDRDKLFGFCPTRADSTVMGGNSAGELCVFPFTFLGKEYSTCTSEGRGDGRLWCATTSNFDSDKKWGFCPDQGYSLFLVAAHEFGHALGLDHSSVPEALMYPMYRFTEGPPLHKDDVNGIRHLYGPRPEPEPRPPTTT

[4] = molecular target: MMP2 (human) (UniProt P08253)
[5] = molecular target: T1, MMP9; remark: listed apart in the source
[6] = molecular target: T2, MMP2; remark: listed apart in the source
[7] = molecular target: TNF alpha converting enzyme (TACE) (UniProt P78536)
Chain of TNF alpha converting enzyme (TACE) (UniProt P78536) (P78536 215-671 limits assumed): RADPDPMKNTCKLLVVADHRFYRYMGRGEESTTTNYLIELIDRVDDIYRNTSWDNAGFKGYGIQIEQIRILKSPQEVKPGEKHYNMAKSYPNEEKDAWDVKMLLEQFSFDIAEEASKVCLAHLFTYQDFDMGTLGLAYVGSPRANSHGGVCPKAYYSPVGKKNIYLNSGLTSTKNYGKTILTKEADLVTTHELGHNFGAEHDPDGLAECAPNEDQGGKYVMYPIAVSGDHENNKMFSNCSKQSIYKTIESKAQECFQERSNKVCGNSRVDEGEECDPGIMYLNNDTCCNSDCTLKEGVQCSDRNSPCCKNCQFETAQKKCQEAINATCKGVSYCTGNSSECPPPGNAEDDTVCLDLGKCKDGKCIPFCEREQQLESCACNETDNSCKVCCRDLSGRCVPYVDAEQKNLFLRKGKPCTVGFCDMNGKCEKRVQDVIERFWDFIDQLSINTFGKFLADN

[8] = molecular target: T1, MMP9; remark: listed apart in the source
[9] = molecular target: T2, MMP2; remark: listed apart in the source
[10] = molecular target: T1, MMP9; remark: listed apart in the source
[11] = molecular target: TNF alpha converting enzyme (TACE) (UniProt P78536 215-671, limits assumed)
Chain of TNF alpha converting enzyme (TACE) (UniProt P78536 215-671, limits assumed) (P78536 215-671 limits assumed): as above

[12] = molecular target: T2, MMP2; remark: listed apart in the source

T1 sequence (P14780 107-457 limits assumed): as the sequence (P14780 107-457 limits assumed) above

TIMP-3 [H78N, Q80T, K94N, E96T, D110N, K112T, R138T] (SEQ ID NO:26) fused to IgG (from UniProt P35625 24-211)
MMP9 EC50 (inhibition of MMP activity, FRET peptide substrate) [1]: 26 nM
MMP2 EC50 (inhibition of MMP activity, FRET peptide substrate) [2]: 14 nM

TIMP-3 [H78N, Q80T, K94N, E96T, D110N, K112T, R138T] (SEQ ID NO:26) fused to HSA (from UniProt P02768 25-609)
MMP9 EC50 (inhibition of MMP activity, FRET peptide substrate) [3]: 5.1 nM
MMP2 EC50 (inhibition of MMP activity, FRET peptide substrate) [4]: 1.4 nM

N-TIMP3 fused to HSA (from UniProt P02768 25-609)
MMP9 EC50 (inhibition of MMP activity, FRET peptide substrate) [3]: 36.5 nM
MMP2 EC50 (inhibition of MMP activity, FRET peptide substrate) [4]: 38.7 nM

B1: TIMP-3 [K45N, V47T, P56N, G58T, K94N, E96T, R138T] (SEQ ID NO:4) (protein)
chain: CTCSPSHPQDAFCNSDIVIRANVTGKKLVKEGNFTTLVYTIKQMKMYRGFTKMPHVQYIHTEASESLCGLNLTVNKYQYLLTGRVYDGKMYTGLCNFVERWDQLTLSQRKGLNYTYHLGCNCKIKSCYYLPCFVTSKNECLWTDMLSNFGYPGYQSKHYACIRQKGGYCSWYRGWAPPDKSIINATDP
modifications: 4 engineered N-linked glycosylation sites (# EG, Table 2)
shift in MMP9 inhibitory activity (fold decrease) as compared to wild-type (fold decrease vs wild-type) [5]: 9
shift in MMP2 inhibitory activity (fold decrease) as compared to wild-type (fold decrease vs wild-type) [6]: 1

B2: TIMP-3 [H78N, Q80T, K94N, E96T, D110N, K112T, R138T] (SEQ ID NO:26) fused to Fc (Fc fusion, not shown: a dimerising Fc or GST)
chain: B1 chain with N22K, T24V, N33P, T35G, H55N, Q57T, D87N, K89T
MMP9 EC50 (inhibition of MMP activity, FRET peptide substrate) [5]: 32.9 nM
MMP2 EC50 (inhibition of MMP activity, FRET peptide substrate) [6]: 13.3 nM

B3: TIMP-3 [K50N, V52T, K94N, E96T, D110N, K112T, R138T] (SEQ ID NO:16) (protein)
chain: B1 chain with N22K, T24V, K27N, V29T, N33P, T35G, D87N, K89T
modifications: 4 engineered N-linked glycosylation sites (# EG, Table 2)
shift in MMP9 inhibitory activity (fold decrease) as compared to wild-type (fold decrease vs wild-type) [5]: 10
shift in TACE inhibitory activity (fold decrease) as compared to wild-type (fold decrease vs wild-type) [7]: 0.6
shift in MMP2 inhibitory activity (fold decrease) as compared to wild-type (fold decrease vs wild-type) [6]: 3

B4: TIMP-3 [K45N, V47T, F57N, K94N, E96T, D110N, K112T] (SEQ ID NO:6) (protein)
chain: B1 chain with N33P, F34N, T35G, D87N, K89T, T115R
modifications: 4 engineered N-linked glycosylation sites (# EG, Table 2)
shift in MMP9 inhibitory activity (fold decrease) as compared to wild-type (fold decrease vs wild-type) [5]: 59
shift in MMP2 inhibitory activity (fold decrease) as compared to wild-type (fold decrease vs wild-type) [6]: 2

B5: TIMP-3 [K50N, V52T, K94N, E96T, D110N, K112T, R138T, G173T] (SEQ ID NO:17) (protein)
chain: B1 chain with N22K, T24V, K27N, V29T, N33P, T35G, D87N, K89T, G150T
modifications: 5 engineered N-linked glycosylation sites (# EG, Table 2)
shift in MMP9 inhibitory activity (fold decrease) as compared to wild-type (fold decrease vs wild-type) [5]: 21
shift in TACE inhibitory activity (fold decrease) as compared to wild-type (fold decrease vs wild-type) [7]: 2
shift in MMP2 inhibitory activity (fold decrease) as compared to wild-type (fold decrease vs wild-type) [6]: 5

B6: TIMP-3 [P56N, G58T K94N, E96T, Q126N, R138T] (SEQ ID NO:21) (protein)
chain: B1 chain with N22K, T24V, Q103N
modifications: 4 engineered N-linked glycosylation sites (# EG, Table 2)
shift in MMP9 inhibitory activity (fold decrease) as compared to wild-type (fold decrease vs wild-type) [5]: 22
shift in MMP2 inhibitory activity (fold decrease) as compared to wild-type (fold decrease vs wild-type) [6]: 2

B7: TIMP-3 [P56N, G58T, K94N, E96T, D110N, K112T, R138T] (SEQ ID NO:22) (protein)
chain: B1 chain with N22K, T24V, D87N, K89T
modifications: 4 engineered N-linked glycosylation sites (# EG, Table 2)
shift in MMP9 inhibitory activity (fold decrease) as compared to wild-type (fold decrease vs wild-type) [5]: 20
shift in MMP2 inhibitory activity (fold decrease) as compared to wild-type (fold decrease vs wild-type) [6]: 2

B8: TIMP-3 [K50N, V52T P56N, G58T, K94N, E96T, D110N, K112T, R138T] (SEQ ID NO:14) (protein)
chain: B1 chain with N22K, T24V, K27N, V29T, D87N, K89T
modifications: 5 engineered N-linked glycosylation sites (# EG, Table 2)
shift in MMP9 inhibitory activity (fold decrease) as compared to wild-type (fold decrease vs wild-type) [5]: 19
shift in MMP2 inhibitory activity (fold decrease) as compared to wild-type (fold decrease vs wild-type) [6]: 2

B9: TIMP-3 [K45S, F57N, K94N, E96T, D110N, K112T, R138T] (SEQ ID NO:12) (protein)
chain: B1 chain with N22S, T24V, N33P, F34N, T35G, D87N, K89T
modifications: 4 engineered N-linked glycosylation sites (# EG, Table 2)
shift in MMP9 inhibitory activity (fold decrease) as compared to wild-type (fold decrease vs wild-type) [5]: 74
shift in MMP2 inhibitory activity (fold decrease) as compared to wild-type (fold decrease vs wild-type) [6]: 3

B10: TIMP-3 [P56N, G58T, H78N, Q80T, K94N, E96T, R138T] (SEQ ID NO:20) (protein)
chain: B1 chain with N22K, T24V, H55N, Q57T
modifications: 4 engineered N-linked glycosylation sites (# EG, Table 2)
shift in MMP9 inhibitory activity (fold decrease) as compared to wild-type (fold decrease vs wild-type) [5]: 15
shift in MMP2 inhibitory activity (fold decrease) as compared to wild-type (fold decrease vs wild-type) [6]: 2

B11: TIMP-3 [K45N, V47T, F57N, K94N, E96T, R138T] (SEQ ID NO:7) (protein)
chain: B1 chain with N33P, F34N, T35G
modifications: 4 engineered N-linked glycosylation sites (# EG, Table 2)
shift in MMP9 inhibitory activity (fold decrease) as compared to wild-type (fold decrease vs wild-type) [5]: 38
shift in MMP2 inhibitory activity (fold decrease) as compared to wild-type (fold decrease vs wild-type) [6]: 2

B12: TIMP-3 [K45N, V47T, K94N, E96T, D110N, K112T, G173T] (SEQ ID NO:10) (protein)
chain: B1 chain with N33P, T35G, D87N, K89T, T115R, G150T
modifications: 4 engineered N-linked glycosylation sites (# EG, Table 2)
shift in MMP9 inhibitory activity (fold decrease) as compared to wild-type (fold decrease vs wild-type) [5]: 9
shift in TACE inhibitory activity (fold decrease) as compared to wild-type (fold decrease vs wild-type) [7]: 2
shift in MMP2 inhibitory activity (fold decrease) as compared to wild-type (fold decrease vs wild-type) [6]: 2

B13: TIMP-3 [H78N, Q80T, K94N, E96T, D110N, K112T, R138T] (SEQ ID NO:26) (other)
chain: B1 chain with N22K, T24V, N33P, T35G, H55N, Q57T, D87N, K89T
modifications: 4 engineered N-linked glycosylation sites (# EG, Table 2)
MMP9 EC50 (inhibition of MMP activity, FRET peptide substrate) [8]: 2.5 nM
MMP2 EC50 (inhibition of MMP activity, FRET peptide substrate) [9]: 1 nM
shift in MMP9 inhibitory activity (fold decrease) as compared to wild-type [10]: 6 fold decrease vs wild-type
shift in TACE inhibitory activity (fold decrease) as compared to wild-type [11]: 0.4 fold decrease vs wild-type
shift in MMP2 inhibitory activity (fold decrease) as compared to wild-type [12]: 2 fold decrease vs wild-type

B14: N-TIMP3 fused to Fc (Fc fusion, part only; not given: Fc carrier, unspecified, part only)
chain, part: CTCSPSHPQDAFCNSDIVIRAKVVGKKLVKEGPFGTLVYTIKQMKMYRGFTKMPHVQYIHTEASESLCGLKLEVNKYQYLLTGRVYDGKMYTGLCNFVERWDQLTLSQRKGLNYRYHLGCN
MMP9 EC50 (inhibition of MMP activity, FRET peptide substrate) [5]: 1.6 nM
MMP2 EC50 (inhibition of MMP activity, FRET peptide substrate) [6]: 6.9 nM

B15: N-TIMP3 (N-terminal TIMP-3 domain, AA 1-144) (other)
chain: B14 chain, part
MMP9 EC50 (inhibition of MMP activity, FRET peptide substrate) [8]: 1.7 nM
MMP2 EC50 (inhibition of MMP activity, FRET peptide substrate) [9]: 7.6 nM
